Experimental findings from the supplement of paper PMC9112550, “Optimization of the antimicrobial peptide Bac7 by deep mutational scanning” (BMC Biology, 2022) are described below.
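Note: peptides expressed intracellularly from a pBAD plasmid library in pooled LB shake-flask culture, induced with 0.3% L-arabinose, DNA abundance read by NGS, three biological replicates, DESeq2 with apeglm shrinkage.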

The data set deals with Escherichia coli TOP10. As to the kind of experiment: shrunken log2 fold change of peptide-encoding DNA abundance (4.5 h post-induction vs induction); higher = less antimicrobial activity (less host growth inhibition). Conditions: time post-induction: 4.5 h; library: site-saturation at positions 5, 18, 19, 20.
Take RRIRSRPPRLPRPRPRPANAPRP: the “shrunken log2 fold change” value came out at 0.438.

With RRIRIRPPRLPRPRPRPRWCPRP, the “shrunken log2 fold change” value was -0.11.

Take RRIRARPPRLPRPRPRPFEIPRP: the “shrunken log2 fold change” value worked out at 0.083.

For RRIRIRPPRLPRPRPRPVMMPRP, the “shrunken log2 fold change” value was -0.31.

RRIRLRPPRLPRPRPRPNVEPRP: the “shrunken log2 fold change” value is -0.211.

In the case of RRIRQRPPRLPRPRPRPTESPRP, the “shrunken log2 fold change” value was found to be 0.105.

Consider RRIRLRPPRLPRPRPRPHPMPRP, for which the “shrunken log2 fold change” value is -0.173.

For the sequence RRIRIRPPRLPRPRPRPSRQPRP, the “shrunken log2 fold change” value is -0.747.

With RRIRHRPPRLPRPRPRPAVVPRP, the “shrunken log2 fold change” value was -0.182.

On to RRIRERPPRLPRPRPRPNWGPRP, for which the “shrunken log2 fold change” value turned out to be 0.00892.

Regarding RRIRHRPPRLPRPRPRPVLMPRP, the “shrunken log2 fold change” value was -0.381.

For RRIRGRPPRLPRPRPRPAKNPRP, the “shrunken log2 fold change” value came out at 0.554.

Take RRIRWRPPRLPRPRPRPHVQPRP: the “shrunken log2 fold change” value was -0.209.

Consider RRIRARPPRLPRPRPRPLRHPRP, for which the “shrunken log2 fold change” value amounted to 0.619.

With RRIRGRPPRLPRPRPRPVGQPRP, the “shrunken log2 fold change” value worked out at 0.145.

Take RRIRGRPPRLPRPRPRPNAQPRP: the “shrunken log2 fold change” value was 0.836.

Regarding RRIRRRPPRLPRPRPRPNGWPRP, the “shrunken log2 fold change” value came out at 0.282.

For the sequence RRIRIRPPRLPRPRPRPDSFPRP, the “shrunken log2 fold change” value was determined as 0.0771.

Regarding RRIRMRPPRLPRPRPRPQPLPRP, the “shrunken log2 fold change” value stood at 0.224.

In the case of RRIRWRPPRLPRPRPRPDTKPRP, the “shrunken log2 fold change” value was found to be 0.00587.

As for RRIRYRPPRLPRPRPRPAITPRP, the “shrunken log2 fold change” value was -0.933.

For RRIRYRPPRLPRPRPRPVSPPRP, the “shrunken log2 fold change” value is -0.449.

Regarding RRIRKRPPRLPRPRPRPSWQPRP, the “shrunken log2 fold change” value is -0.212.

Regarding RRIRGRPPRLPRPRPRPMQHPRP, the “shrunken log2 fold change” value came to 1.24.

As for RRIRYRPPRLPRPRPRPNPGPRP, the “shrunken log2 fold change” value was -0.000104.

For RRIRNRPPRLPRPRPRPGMEPRP, the “shrunken log2 fold change” value is -0.0302.

For RRIRKRPPRLPRPRPRPQQPPRP, the “shrunken log2 fold change” value was -0.041.

In the case of RRIRHRPPRLPRPRPRPGRAPRP, the “shrunken log2 fold change” value was found to be 0.49.

RRIRHRPPRLPRPRPRPSRWPRP: the “shrunken log2 fold change” value turned out to be 0.102.

Consider RRIRFRPPRLPRPRPRPTQDPRP, for which the “shrunken log2 fold change” value turned out to be 0.33.

For the sequence RRIRDRPPRLPRPRPRPMMGPRP, the “shrunken log2 fold change” value was determined as 0.0397.

On to RRIRNRPPRLPRPRPRPIAWPRP, for which the “shrunken log2 fold change” value was 0.228.

Take RRIRERPPRLPRPRPRPRAEPRP: the “shrunken log2 fold change” value was -0.116.

Take RRIRARPPRLPRPRPRPISAPRP: the “shrunken log2 fold change” value was 0.294.

As for RRIRARPPRLPRPRPRPRVFPRP, the “shrunken log2 fold change” value is 0.704.

For RRIRWRPPRLPRPRPRPWTEPRP, the “shrunken log2 fold change” value was -0.301.

Regarding RRIRLRPPRLPRPRPRPQTEPRP, the “shrunken log2 fold change” value was -0.0579.

As to RRIRNRPPRLPRPRPRPGGPPRP, the “shrunken log2 fold change” value came out at 0.37.

As to RRIRYRPPRLPRPRPRPGMTPRP, the “shrunken log2 fold change” value turned out to be 0.0238.

In the case of RRIRGRPPRLPRPRPRPVCSPRP, the “shrunken log2 fold change” value was determined as 0.613.

As to RRIRMRPPRLPRPRPRPKTAPRP, the “shrunken log2 fold change” value was found to be 2.56.

In the case of RRIRSRPPRLPRPRPRPMMRPRP, the “shrunken log2 fold change” value came to 0.836.

Consider RRIRTRPPRLPRPRPRPMQRPRP, for which the “shrunken log2 fold change” value was -0.0122.

Turning to RRIRIRPPRLPRPRPRPFNTPRP, the “shrunken log2 fold change” value is -0.191.

With RRIRRRPPRLPRPRPRPYHMPRP, the “shrunken log2 fold change” value was -0.254.

In the case of RRIRFRPPRLPRPRPRPKYPPRP, the “shrunken log2 fold change” value was -0.31.

For the sequence RRIRERPPRLPRPRPRPYAFPRP, the “shrunken log2 fold change” value is -0.961.

As for RRIRHRPPRLPRPRPRPSASPRP, the “shrunken log2 fold change” value is -0.0379.

On to RRIRMRPPRLPRPRPRPVSEPRP, for which the “shrunken log2 fold change” value is -0.38.

Consider RRIRYRPPRLPRPRPRPFQQPRP, for which the “shrunken log2 fold change” value is -0.0176.
